In publication PMC11964227, “Critical functions and key interactions mediated by the RNase E scaffolding domain in Pseudomonas aeruginosa” (PLOS Genetics, 2025):

How the values were obtained:
T18-RNase E^1-1057 = biological target: T1, T18-RNase E^1-1057 (P. aeruginosa, UniProt Q9HZM8 1-1057); assay: two-hybrid; adenylate-cyclase-based bacterial two-hybrid in E. coli BTH101 (T18 and T25 fusions); MacConkey agar with maltose and IPTG, 30°C then room temperature; β-galactosidase activity with ONPG; conditions: partners not purified
T1 construct: source: bacterial two-hybrid fusion (pUT18C), E. coli BTH101

His10Smt3-tagged PNPase = biological target: T2, His10Smt3-tagged PNPase (P. aeruginosa, UniProt Q9HV59 1-701); assay: pull-down; purified Flag-tagged RNase E proteins (20-25 µg) immobilised on anti-Flag M2 magnetic beads, 5 µg of PNPase or RhlB in 100 µL buffer H (50 mM Tris-HCl pH 8.0, 150 mM NaCl, 0.01% Triton X-100), 1 hour at 4 °C; SDS-PAGE, Coomassie Blue; conditions: both partners purified
T2 construct: Polyribonucleotide phosphorylase (PNPase), P. aeruginosa, pnp; also called His10-Smt3-PNPase; source: soluble bacterial lysates, purified (nickel-agarose)
T2 sequence (looked up): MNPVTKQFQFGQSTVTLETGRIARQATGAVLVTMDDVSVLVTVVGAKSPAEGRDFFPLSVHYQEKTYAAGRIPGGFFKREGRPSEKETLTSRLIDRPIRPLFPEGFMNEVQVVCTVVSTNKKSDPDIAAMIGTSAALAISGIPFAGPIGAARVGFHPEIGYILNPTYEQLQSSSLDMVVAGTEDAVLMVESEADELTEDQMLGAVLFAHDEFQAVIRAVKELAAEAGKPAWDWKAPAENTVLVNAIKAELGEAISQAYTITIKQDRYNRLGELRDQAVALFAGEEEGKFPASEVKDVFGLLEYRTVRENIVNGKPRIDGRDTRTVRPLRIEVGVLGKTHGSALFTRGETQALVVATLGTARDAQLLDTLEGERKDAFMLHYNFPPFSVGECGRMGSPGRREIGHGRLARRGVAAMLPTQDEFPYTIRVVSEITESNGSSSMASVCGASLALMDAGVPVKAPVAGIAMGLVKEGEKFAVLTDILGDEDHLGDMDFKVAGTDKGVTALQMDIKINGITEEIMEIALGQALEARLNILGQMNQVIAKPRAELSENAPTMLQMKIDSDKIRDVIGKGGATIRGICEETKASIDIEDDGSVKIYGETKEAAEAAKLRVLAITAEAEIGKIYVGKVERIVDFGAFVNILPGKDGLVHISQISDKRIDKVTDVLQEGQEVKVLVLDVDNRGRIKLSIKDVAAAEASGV

B1: T25-PNPase (enzyme, P. aeruginosa, UniProt Q9HV59 1-701, looked up)
chain: T2 sequence (looked up)
notes: Polyribonucleotide phosphorylase (PNPase), P. aeruginosa, pnp; source: bacterial two-hybrid fusion (pKT25), E. coli BTH101
fold increase of β-galactosidase activity compared to empty vector controls (T18-RNase E^1-1057): 11 fold

B2: T25-RhlB (enzyme, P. aeruginosa, UniProt Q9HXE5 1-397, looked up)
chain: MVEPQEGKTRFHDFNLAPSLMHAIHDLGFPYCTPIQAQVLGFTLRGQDAIGRAQTGTGKTAAFLISIITQLLQTPPPKERYMGEPRALIIAPTRELVVQIAKDAAALTKYTGLNVMTFVGGMDFDKQLKQLEARFCDILVATPGRLLDFNQRGEVHLDMVEVMVLDEADRMLDMGFIPQVRQIIRQTPHKGERQTLLFSATFTDDVMNLAKQWTVDPAIVEIEPENVASDTVEQHVYAVAGSDKYKLLYNLVAQNNWERVMVFANRKDEVRRIEERLTKDGISAAQMSGDVPQHKRIRTLEGFREGKIRVLVATDVAGRGIHIDGISHVINFTLPEDPDDYVHRIGRTGRAGASGTSISFAGEDDAFALPPIEELLGRKITCEMPPAELLKPVPRKH
notes: RNA helicase RhlB, P. aeruginosa; source: bacterial two-hybrid fusion (pKT25), E. coli BTH101
fold increase of β-galactosidase activity compared to empty vector controls (T18-RNase E^1-1057): 5 fold

B3: Flag-RNase E^572-1057 (domain or fragment, P. aeruginosa, UniProt Q9HZM8 572-1057, looked up)
chain: AAKPAETSKPAAERQTRQDERRNGRQQNRRRDGRDGNRRDEERKPREERAERQPREERAERPNREERSERRREERAERPAREERQPREGREERAERTPREERQPREGREGREERSERRREERAERPAREERQPREGREERAERPAREERQPREDRQARDAAALEAEALPNDESLEQDEQDDTDGERPRRRSRGQRRRSNRRERQREVSGELEGSEATDNAAAPLNTVAAAAAAGIAVASEAVEANVEQAPATTSEAASETTASDETDASTSEAVETQGADSEANTGETADIEAPVTVSVVRDEADQSTLLVAQATEEAPFASESVESREDAESAVQPATEAAEEVAAPVPVEVAAPSEPAATEEPTPAIAAVPANATGRALNDPREKRRLQREAERLAREAAAAAEAAAQAAPAVEEIPAVASEEASAQEEPAAPQAEEITQADVPSQADEAQEAVQAEPEASGEGAADTEHAKKTEESETSRPHA
notes: The results call the C-terminal tag 3xFlag, the methods Twin-Strep-Flag; also called RNase E CTD with no MTS; source: soluble bacterial lysates, purified (nickel-agarose, 250 mM imidazole fraction); not shown: His10-Smt3, N-terminal, kept; Twin-Strep-Flag, C-terminal, kept
binding result (His10Smt3-tagged PNPase): binds
